Experiments:
circulating platelets = conditions: 73 healthy volunteers, higher doses; cited from earlier work
ovarian TIL = test: CrGFR in ovarian TIL mixed with patient matched tumour cells; assay type: cell-based, human; conditions: all three donors
Experimental: (§1) FIG. 14—Analysis of Chimeric recombinant Growth Factor Receptors in Ovarian TIL. Tumour Infiltrating Lymphocytes from ×3 ovarian TIL were transduced with the WT TpoR or indicated variant CrGFR and incubated in the presence of patient matched tumour cells with either Eltrombopag or no growth factors. Cells were analysed and counted at days 4 and 7 and the number of cells expressing the receptor assessed using PE conjugated anti-CD110 antibodies, DRAQ7 viability dye and a MACSQuant analyser. Graphs show counts between days 4 and 7 when recovery of TIL occurs after an initial contraction in numbers driven by tumour regulatory factors and/or activation induced cell death.
Applicants evaluated further the effect of the CrGFR in ovarian TIL. Three ovarian TIL populations were engineered to express either the WT, or TpoR.CD40, TpoR.IL2rγ or TpoR.LMP1-Cyt variant receptors and mixed with patient matched tumour cells in the presence or absence of Eltrombopag. Counts of total and CD110+ cells were made after 4 and 7 days. Applicants observed specific expansion of the CrGFR+ cells in the presence of tumour between days 4 and 7 in donors 2 and 3 with all the receptors except the TpOR.LMP1.cyt.

primary human T-cells [1] = test: Eltrombopag and IL-2 on CrGFR sorted (CD110+) primary human T-cells, up to 7 days; assay type: cell-based; conditions: for expansion of CrGFR cells above that with media alone: second donor (FIG. 12)
Experimental: (§2) FIG. 10—Analysis of Eltrombopag and IL-2 on CrGFR sorted primary human T-cells from Donor 4. Primary human T-cells from donor 4 were transduced with the WT TpoR or variant CrGFR, and enriched for expression by Miltenyi MACS technology selected for and incubated in the presence of IL2 or Eltrombopag. Cells were removed at time points up to 7 days and the number of cells expressing the receptor assessed using PE conjugated anti-CD110 antibodies, DRAQ7 viability dye and a MACSQuant analyser.
as §2, with “11—Analysis” for “10—Analysis”, “5.” for “4.”, “5” for “4”
as §2, with “12—Analysis” for “10—Analysis”, “6.” for “4.”, “6” for “4”
Paramagnetic bead sorts were conducted as per the manufacturers' instructions using either anti-PE microbeads (Miltenyi Biotec or StemCell Technologies), or T-cell isolation beads (17951: StemCell Technologies).
Next Applicants repeated the experiment but sorted the CrGFR+ cells using CD110+ selection by paramagnetic bead selection using the receptors identified from the first round of selections (FIGS. 10, 11 and 12). Applicants observed enhanced survival of T-cells engrafted with the majority of the CrGFR in all three donors. In particular Applicants saw expansion of WT-TpoR, TpOR.CD40, TpOR.IL2rγ and TpoR.LMP1-cyto cells in the second donor (FIG. 12) above that with media alone.

primary human T-cells [2] = test: Eltrombopag and IL-2 on CrGFR transduced primary human T-cells, up to 21 days; assay type: cell-based; conditions: after 21 days, x3 donors, Eltrombopag
Experimental: (§3) FIGS. 6A-6B—Analysis of Eltrombopag and IL-2 on primary human T-cells from Donor 1. Primary human T-cells from donor 1 were transduced with the WT TpoR or variant CrGFR and incubated in the presence of IL2 or Eltrombopag. Cells were removed at time points up to 21 days and the proportion of cells expressing the receptor assessed using PE conjugated anti-CD110 antibodies and a MACSQuant analyser.
as §3, with “FIGS. 7A-7B—Analysis” for “FIGS. 6A-6B—Analysis”, “Donor 2.” for “Donor 1.”, “donor 2” for “donor 1”
as §3, with “FIGS. 8A-8B—Analysis” for “FIGS. 6A-6B—Analysis”, “Donor 3.” for “Donor 1.”, “donor 3” for “donor 1”
FIGS. 9A-9B—Selection of optimal CrGFRs for next round of analysis. Flow cytometry plots showing expression of CrGFRs in ×3 donor primary human T-cells after 21 days incubation in Eltrombopag. The receptors TpoR.CD40, TpoR.IL2rγ, TpoR.ITAM1, TpoR.A60, TpoR.LMP1-cyto and TpoR.TpoR-cyto.LMP1-cyto were chosen for future comparison with the wt TpoR.
Peripheral blood mononuclear cells were isolated from normal healthy donors before activation for 24 hours with T-cell activation and expansion beads (Invitrogen) according to the manufacturer's instructions before addition of lentiviral supernatants.
Following expansion cells were washed excessively to remove any exogenous IL2 and plated into 96-well U-bottom plates. Cells were supplemented with IL2 (Proleukin) or Eltrombopag (Stratech Scientific, Suffolk, UK). At various time points thereafter cells were either stained with a 1:400 dilution of eFlor-450 fixable viability dye (eBioscience, UK) and counted directly from the wells using a MACSQuant Cytometer, or were stained with DRAQ7 viability dye plus phycoerythrin conjugated anti-CD110 antibodies (Miltenyi Biotec, UK) and analysed using a MACSQuant cytomter. Cell viability and/or transduction level was then analysed using MACSQuantify software (Miltenyi Biotec, UK).
Next Applicants took these receptors and expressed them in primary human T-cells and exposed these cells to IL-2 or Eltrombopag. Three donor primary human T-cell populations were isolated from buffy coats and transduced with the indicated lentiviral constructs in the presence of CD3/CD28 Dynabeads. Following expansion the cells were incubated with IL-2 or Eltrombopag. Applicants saw an increase in expansion/survival of T-cells with some of the receptors in some of the donors. […] This narrowed Applicants' panel of receptors to analyse further to: TpoR.CD40, TpOR.IL2rγ, TpoR.ITAM1, TpOR.LMP1-cyt, and TpoR.TpoR-cyt-LMP1-cyt.

phospho-STAT5 = test: Induction of pSTAT5 in CrGFR expressing T-cells; assay type: cell-based, human; conditions: T-cells transduced with wt TpoR, TpoR.CD40 or TpoR.IL2rγ
Experimental: FIG. 15—Induction of pSTAT by chimeric recombinant growth factor receptors. Primary human T-cells were isolated and transduced with the indicated CrGFR. Cells were enriched for CrGFR expression using Miltenyi MACS technology and expanded via polyclonal stimulation. The enriched cells were stimulated for 4 h with either media alone (RPMI), IL2, IL12, Tpo or Eltrombopag (Elt) before methanol fixation and intracellular staining with antibodies towards phospho-STAT5.
Finally, Applicants validated the signalling potential of the novel CrGFR by conducting phospho STAT analysis upon treatment of CrGFR expressing T-cells with media, cytokine or drug. To this end T-cells from 4 donors were transduced with either the wt TpoR, TpoR. CD40 or TpoR.IL2rγ, enriched for CrGFR expression using paramagnetic bead selection protocols and then expanded using polyclonal stimulation. The cells were treated for four hours with media alone (RPMI), IL-2, Tpo or Eltrombopag (Elt) before methanol fixation, permeabilization and analysis using pSTAT specific antibodies. STAT molecules are the key drivers of cell signalling upon cytokine activation of cells, pSTAT5 in particular is key to IL-2 activity.

[3] = tested on: Tumour Infiltrating Lymphocytes from TIL042; test: CrGFR in TIL042 mixed with patient matched tumour cells; assay type: cell-based, human
Experimental: as §1, with “FIG. 13—Analysis” for “FIG. 14—Analysis”, “in TIL042.” for “in Ovarian TIL.”, “from TIL042” for “from ×3 ovarian TIL”, “tumour lines” for “tumour cells”, “with the addition of IL2, Eltrombopag, IL-2+Eltrombopag,” for “with either Eltrombopag”
Applicants next assessed the ability of these receptors to promote survival/expansion in a model of adoptive cell therapy by engineering tumour infiltrating lymphocytes. TIL from patient TIL042 (Uveal melanoma) were engineered with the variant or wt CrGFR and mixed with patient matched tumour cells (CTUM42.1). On days 4 and 7 counts were made of the total cells as well as the CD110+ cells. Applicants found an initial decline in cell numbers, probably driven by AICD or intrinsic inhibitory factors. However between days 4 and 7 Applicants observed an increase in the numbers of CD110+ cells with all the receptors tested with Eltrombopag or Eltrombopag+low dose IL-2.

CC1=NN(c2ccc(C)c(C)c2)C(=O)/C1=N\Nc1cccc(-c2cccc(C(=O)O)c2)c1O [Eltrombopag]
tolerability (circulating platelets): without tolerability problems

B1: TpoR.IL2rγ: SEQ ID NO: 6; TpoR fused to IL2rγ cytoplasmic domain (protein)
chain: MPSWALFMVTSCLLLAPQNLAQVSSQDVSLLASDSEPLKCFSRTFEDLTCFWDEEEAAPSGTYQLLYAYPREKPRACPLSSQSMPHFGTRYVCQFPDQEEVRLFFPLHLWVKNVFLNQTRTQRVLFVDSVGLPAPPSIIKAMGGSQPGELQISWEEPAPEISDFLRYELRYGPRDPKNSTGPTVIQLIATETCCPALQRPHSASALDQSPCAQPTMPWQDGPKQTSPSREASALTAEGGSCLISGLQPGNSYWLQLRSEPDGISLGGSWGSWSLPVTVDLPGDAVALGLQCFTLDLKNVTCQWQQQDHASSQGFFYHSRARCCPRDRYPIWENCEEEEKTNPGLQTPQFSRCHFKSRNDSIIHILVEVTTAPGTVHSYLGSPFWIHQAVRLPTPNLHWREISSGHLELEWQHPSSWAAQETCYQLRYTGEGHQDWKVLEPPLGARGGTLELRPRSRYRLQLRARLNGPTYQGPWSSWSDPTRVETATETAWISLVTALHLVLGLSAVLGLLLLRWQFPAHYRRLRHALWPSLPDLHRVLGQYLRDTAALSPPKATVSDTCEEVEPSLLEILPKSSERTPLPLCSSQAQMDYRRLQPSCLGTMPLSVCPPMAESGSCCTTHIANHSYLPLSYWQQPERTMPRIPTLKNLEDLVTEYHGNFSAWSGVSKGLAESLQPDYSERLCLVSEIPPKGGALGEGPGASPCNQHSPYWAPPCYTLKPET
modifications: TpoR.IL2rgamma; MISC_FEATURE (1)..(491): TpoR Extracellular Domain; MISC_FEATURE (492)..(513): TpoR Transmembrane Domain; MISC_FEATURE (514)..(635): TpoR Cytoplasmic Domain; MISC_FEATURE (636)..(721): IL2r-gamma Cytoplasmic Domain
activity compared with the WT receptor (ovarian TIL): superior to that of the WT receptor | expansion of CrGFR cells above that with media alone (primary human T-cells [1]): expansion | proportion of viable cells with a distinct population of CD110+ cells (primary human T-cells [2]): good proportion of viable cells with a distinct population of CD110+ cells | STAT5 activation of the CrGFR when stimulated with Eltrombopag (phospho-STAT5): clear activation of the correct STAT5 activation pathway

B2: TpoR.CD40: SEQ ID NO: 9; TpoR fused to CD40 cytoplasmic domain (protein)
chain: MPSWALFMVTSCLLLAPQNLAQVSSQDVSLLASDSEPLKCFSRTFEDLTCFWDEEEAAPSGTYQLLYAYPREKPRACPLSSQSMPHFGTRYVCQFPDQEEVRLFFPLHLWVKNVFLNQTRTQRVLFVDSVGLPAPPSIIKAMGGSQPGELQISWEEPAPEISDFLRYELRYGPRDPKNSTGPTVIQLIATETCCPALQRPHSASALDQSPCAQPTMPWQDGPKQTSPSREASALTAEGGSCLISGLQPGNSYWLQLRSEPDGISLGGSWGSWSLPVTVDLPGDAVALGLQCFTLDLKNVTCQWQQQDHASSQGFFYHSRARCCPRDRYPIWENCEEEEKTNPGLQTPQFSRCHFKSRNDSIIHILVEVTTAPGTVHSYLGSPFWIHQAVRLPTPNLHWREISSGHLELEWQHPSSWAAQETCYQLRYTGEGHQDWKVLEPPLGARGGTLELRPRSRYRLQLRARLNGPTYQGPWSSWSDPTRVETATETAWISLVTALHLVLGLSAVLGLLLLRWQFPAHYRRLRHALWPSLPDLHRVLGQYLRDTAALSPPKATVSDTCEEVEPSLLEILPKSSERTPLPLCSSQAQMDYRRLQPSCLGTMPLSVCPPMAESGSCCTTHIANHSYLPLSYWQQPKKVAKKPTNKAPHPKQEPQEINFPDDLPGSNTAAPVQETLHGCQPVTQEDGKESRISVQERQ
modifications: TpoR-CD40; MISC_FEATURE (1)..(491): TpoR Extracellular Domain; MISC_FEATURE (492)..(513): TpoR Transmembrane Domain; MISC_FEATURE (514)..(635): TpoR Cytoplasmic Domain; MISC_FEATURE (636)..(697): CD40 Cytoplasmic Domain
activity compared with the WT receptor (ovarian TIL): superior to that of the WT receptor | activity in primary human T-cells (primary human T-cells [1]; conclusion): optimal activity | expansion of CrGFR cells above that with media alone (primary human T-cells [1]): expansion | proportion of viable cells with a distinct population of CD110+ cells (primary human T-cells [2]): good proportion of viable cells with a distinct population of CD110+ cells | non-specific enrichment in IL2 alone ([3]; TIL042 with patient matched tumour cells): no non-specific enrichment | Eltrombopag mediated survival/expansion of TIL ([3]; conclusion): very specific

Source: patent US20210205365A1, “Chimeric Growth Factor Receptors” (Instil Bio (UK) Ltd., priority 2018, published 2021)
